The record followed here is article PMC3043165 (2011).

One assay deals with T1, integrin αvβ3 (Homo sapiens, UniProt P06756).
T1 chain 1: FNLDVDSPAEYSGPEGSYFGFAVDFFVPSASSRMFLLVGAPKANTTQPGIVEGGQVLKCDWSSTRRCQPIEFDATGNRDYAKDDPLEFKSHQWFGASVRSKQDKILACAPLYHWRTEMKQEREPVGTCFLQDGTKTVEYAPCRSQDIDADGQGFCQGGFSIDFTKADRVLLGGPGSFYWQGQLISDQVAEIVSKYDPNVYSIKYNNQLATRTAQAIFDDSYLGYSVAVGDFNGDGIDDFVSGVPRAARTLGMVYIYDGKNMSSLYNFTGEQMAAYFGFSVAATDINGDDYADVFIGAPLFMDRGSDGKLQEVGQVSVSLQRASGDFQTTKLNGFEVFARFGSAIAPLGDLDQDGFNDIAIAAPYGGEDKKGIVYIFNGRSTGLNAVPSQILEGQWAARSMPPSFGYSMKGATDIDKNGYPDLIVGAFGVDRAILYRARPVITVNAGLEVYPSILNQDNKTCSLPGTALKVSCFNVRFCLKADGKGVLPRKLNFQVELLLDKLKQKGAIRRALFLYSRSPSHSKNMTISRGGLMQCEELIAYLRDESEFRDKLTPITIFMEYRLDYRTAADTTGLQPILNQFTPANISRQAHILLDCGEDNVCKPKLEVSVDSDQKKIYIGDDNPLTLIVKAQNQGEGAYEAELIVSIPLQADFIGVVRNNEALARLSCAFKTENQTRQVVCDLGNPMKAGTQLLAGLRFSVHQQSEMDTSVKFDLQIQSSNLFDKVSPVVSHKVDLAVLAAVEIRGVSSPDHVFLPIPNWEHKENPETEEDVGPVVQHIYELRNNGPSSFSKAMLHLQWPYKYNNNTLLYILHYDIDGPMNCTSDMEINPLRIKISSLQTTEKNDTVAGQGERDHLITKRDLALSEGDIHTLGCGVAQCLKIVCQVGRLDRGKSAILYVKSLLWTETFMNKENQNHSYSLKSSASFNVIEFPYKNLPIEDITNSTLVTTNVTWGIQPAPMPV
T1 chain 2: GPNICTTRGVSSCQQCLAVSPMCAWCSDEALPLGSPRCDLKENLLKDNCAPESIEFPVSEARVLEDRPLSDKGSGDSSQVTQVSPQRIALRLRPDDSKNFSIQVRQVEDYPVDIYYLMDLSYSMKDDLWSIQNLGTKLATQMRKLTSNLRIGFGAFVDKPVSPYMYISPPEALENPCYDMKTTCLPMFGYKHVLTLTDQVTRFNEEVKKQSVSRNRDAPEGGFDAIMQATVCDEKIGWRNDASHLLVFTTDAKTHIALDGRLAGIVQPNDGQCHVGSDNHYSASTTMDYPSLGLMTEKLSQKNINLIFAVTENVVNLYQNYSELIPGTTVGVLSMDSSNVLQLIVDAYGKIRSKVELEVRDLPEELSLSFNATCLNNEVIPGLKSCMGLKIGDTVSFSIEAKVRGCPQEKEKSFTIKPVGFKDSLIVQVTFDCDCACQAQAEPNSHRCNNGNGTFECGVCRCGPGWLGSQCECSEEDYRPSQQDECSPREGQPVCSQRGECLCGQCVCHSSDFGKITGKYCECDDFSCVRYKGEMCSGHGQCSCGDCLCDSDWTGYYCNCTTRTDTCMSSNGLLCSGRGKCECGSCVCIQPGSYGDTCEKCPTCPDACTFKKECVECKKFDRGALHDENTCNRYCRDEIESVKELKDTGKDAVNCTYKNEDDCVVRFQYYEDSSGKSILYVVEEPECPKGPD
As to the kind of experiment: competitive solid-phase binding assay with biotinylated vitronectin.

The next assay deals with T2, integrin αvβ5 (Homo sapiens, UniProt P06756).
T2 chain 1: T1 chain 1
T2 chain 2: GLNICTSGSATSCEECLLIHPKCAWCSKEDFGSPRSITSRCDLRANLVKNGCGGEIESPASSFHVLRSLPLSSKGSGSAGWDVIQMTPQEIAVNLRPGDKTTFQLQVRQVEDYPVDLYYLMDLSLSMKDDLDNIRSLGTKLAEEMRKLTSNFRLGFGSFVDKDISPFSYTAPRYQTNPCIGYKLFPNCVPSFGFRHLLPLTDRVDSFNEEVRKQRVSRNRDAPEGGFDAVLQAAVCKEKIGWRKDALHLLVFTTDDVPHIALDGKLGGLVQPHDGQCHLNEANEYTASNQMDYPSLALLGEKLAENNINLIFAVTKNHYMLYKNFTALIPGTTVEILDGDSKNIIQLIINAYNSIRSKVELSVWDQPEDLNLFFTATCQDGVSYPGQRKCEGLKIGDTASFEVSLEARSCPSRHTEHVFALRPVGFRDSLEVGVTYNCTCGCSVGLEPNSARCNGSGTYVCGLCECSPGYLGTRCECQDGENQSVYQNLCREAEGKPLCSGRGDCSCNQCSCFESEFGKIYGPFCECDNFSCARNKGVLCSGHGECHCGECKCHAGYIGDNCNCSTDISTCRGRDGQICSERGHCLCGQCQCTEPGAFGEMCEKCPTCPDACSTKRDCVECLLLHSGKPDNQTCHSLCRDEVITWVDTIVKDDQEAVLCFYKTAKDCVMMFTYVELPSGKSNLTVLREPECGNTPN
The description is as above.

For the next assay, the target named is integrin αIIbβ3 (Homo sapiens, UniProt P08514). Briefly: competitive solid-phase binding assay with biotinylated fibronectin.

Where no end group is shown, it is not given here.

As to GRGDS (not fully specified) [GRGDS-CNP 50% (70 peptides per CNP)], in the assay with integrin αvβ3, the IC50 (commonly the concentration needed to halve the response being measured) came to 1.08 nM.
Still for that read-out and setting: as for GRGDS (not fully specified) [GRGDS-CNP 20% (28 peptides per CNP)], the figure is 5.21 nM; as for GRGDS (not fully specified) [GRGDS-CNP 10% (14 peptides per CNP)], 12.5 nM.
As to GRGDS (not fully specified) [GRGDS-CNP 5% (7 peptides per CNP)], the IC50 in the assay with integrin αvβ5 was greater than 1000 nM; in the assay with integrin αvβ3 it was 78.5 nM; with integrin αIIbβ3 it was greater than 1000 nM.
